The record followed here is EP4480965A1 (Vect-Horus, dated 2024).

Usually kon stands for the rate constant with which the complex forms.

Where a chain is given by its changes, count along the chain named. Where two headings read alike, the source gives them in different places.

Assay [1] deals with T1, mouse transferrin receptor fused to EGFP, expressed on CHO cells (mouse, UniProt Q62351 1-763).
T1 construct: whole, on cells; also called mTfR; mouse TfR
The experiment in a line: flow cytometry, CHO-mTfR-EGFP cells, apparent Kd.

The target of assay [2] is T2, human transferrin receptor fused to EGFP, expressed on CHO cells (human, UniProt P02786 1-760).
T2 construct: whole, on cells; also called hTfR; human TfR
T2 sequence (P02786 whole entry, the tested form may be a part): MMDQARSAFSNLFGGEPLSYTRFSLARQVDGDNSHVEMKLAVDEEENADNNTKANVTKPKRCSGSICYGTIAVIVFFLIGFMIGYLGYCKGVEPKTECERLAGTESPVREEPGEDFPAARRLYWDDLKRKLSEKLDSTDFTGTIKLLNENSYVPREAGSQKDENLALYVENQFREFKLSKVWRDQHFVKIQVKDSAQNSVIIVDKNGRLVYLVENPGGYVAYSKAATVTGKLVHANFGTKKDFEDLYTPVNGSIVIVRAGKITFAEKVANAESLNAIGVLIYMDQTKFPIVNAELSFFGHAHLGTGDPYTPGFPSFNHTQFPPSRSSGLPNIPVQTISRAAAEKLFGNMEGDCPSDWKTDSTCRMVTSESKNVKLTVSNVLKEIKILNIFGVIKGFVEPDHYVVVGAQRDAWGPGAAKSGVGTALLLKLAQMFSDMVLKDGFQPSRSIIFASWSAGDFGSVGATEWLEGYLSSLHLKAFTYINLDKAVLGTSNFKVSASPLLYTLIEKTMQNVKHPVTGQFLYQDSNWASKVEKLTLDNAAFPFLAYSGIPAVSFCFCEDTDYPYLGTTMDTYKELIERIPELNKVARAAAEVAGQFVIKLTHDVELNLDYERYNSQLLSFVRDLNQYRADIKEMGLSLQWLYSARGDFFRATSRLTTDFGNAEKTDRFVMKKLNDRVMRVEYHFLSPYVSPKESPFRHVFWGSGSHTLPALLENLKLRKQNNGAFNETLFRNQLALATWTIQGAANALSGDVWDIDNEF
The experiment in a line: flow cytometry, CHO-hTfR-EGFP cells, apparent Kd. (In general: In flow cytometry, cells or beads pass a laser one at a time.)

Assay [3] addresses T1, mouse transferrin receptor fused to …. In words: flow cytometry, CHO-mTfR-EGFP cells, apparent Kd. The source holds these as a separate data set.
In assay [4] the target is T3, rhesus monkey transferrin receptor fused to EGFP, expressed on CHO cells (rhesus monkey, UniProt H9EXL1 1-760).
T3 construct: also called rhTfR; rhesus monkey TfR; not shown: EGFP fused to the cytoplasmic end of the receptor
T3 sequence (H9EXL1 entry or part of it limits assumed, form in doubt): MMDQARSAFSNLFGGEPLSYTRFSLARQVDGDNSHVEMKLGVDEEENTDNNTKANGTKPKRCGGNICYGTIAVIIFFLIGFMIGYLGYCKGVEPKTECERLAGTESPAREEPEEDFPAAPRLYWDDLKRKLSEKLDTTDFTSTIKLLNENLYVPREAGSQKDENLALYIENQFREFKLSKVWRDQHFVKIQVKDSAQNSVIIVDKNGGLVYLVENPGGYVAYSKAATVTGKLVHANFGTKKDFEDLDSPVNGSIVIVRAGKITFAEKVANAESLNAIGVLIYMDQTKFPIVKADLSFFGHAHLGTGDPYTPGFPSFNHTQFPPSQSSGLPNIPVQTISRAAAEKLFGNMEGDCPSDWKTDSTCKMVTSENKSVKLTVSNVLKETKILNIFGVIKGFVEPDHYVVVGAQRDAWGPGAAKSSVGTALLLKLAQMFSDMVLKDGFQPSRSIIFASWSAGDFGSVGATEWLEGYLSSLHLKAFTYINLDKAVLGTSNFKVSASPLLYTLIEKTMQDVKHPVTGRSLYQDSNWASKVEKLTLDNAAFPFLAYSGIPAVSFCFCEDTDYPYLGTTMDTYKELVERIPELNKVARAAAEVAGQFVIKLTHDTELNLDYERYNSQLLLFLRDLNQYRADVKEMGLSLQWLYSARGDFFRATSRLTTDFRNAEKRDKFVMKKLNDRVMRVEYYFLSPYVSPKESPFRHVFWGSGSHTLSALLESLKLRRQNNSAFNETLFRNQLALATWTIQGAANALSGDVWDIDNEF
The experiment in a line: flow cytometry, CHO-rhTfR-EGFP cells, apparent Kd.

In assay [5] the target is murine TfR expressed by murine neuroblastoma Neuro-2a cells (mouse, UniProt Q62351 1-763). In words: cell-based or functional assay.
Chain of murine TfR expressed by murine neuroblastoma Neuro-2a cells (Q62351 whole entry, the tested form may be a part): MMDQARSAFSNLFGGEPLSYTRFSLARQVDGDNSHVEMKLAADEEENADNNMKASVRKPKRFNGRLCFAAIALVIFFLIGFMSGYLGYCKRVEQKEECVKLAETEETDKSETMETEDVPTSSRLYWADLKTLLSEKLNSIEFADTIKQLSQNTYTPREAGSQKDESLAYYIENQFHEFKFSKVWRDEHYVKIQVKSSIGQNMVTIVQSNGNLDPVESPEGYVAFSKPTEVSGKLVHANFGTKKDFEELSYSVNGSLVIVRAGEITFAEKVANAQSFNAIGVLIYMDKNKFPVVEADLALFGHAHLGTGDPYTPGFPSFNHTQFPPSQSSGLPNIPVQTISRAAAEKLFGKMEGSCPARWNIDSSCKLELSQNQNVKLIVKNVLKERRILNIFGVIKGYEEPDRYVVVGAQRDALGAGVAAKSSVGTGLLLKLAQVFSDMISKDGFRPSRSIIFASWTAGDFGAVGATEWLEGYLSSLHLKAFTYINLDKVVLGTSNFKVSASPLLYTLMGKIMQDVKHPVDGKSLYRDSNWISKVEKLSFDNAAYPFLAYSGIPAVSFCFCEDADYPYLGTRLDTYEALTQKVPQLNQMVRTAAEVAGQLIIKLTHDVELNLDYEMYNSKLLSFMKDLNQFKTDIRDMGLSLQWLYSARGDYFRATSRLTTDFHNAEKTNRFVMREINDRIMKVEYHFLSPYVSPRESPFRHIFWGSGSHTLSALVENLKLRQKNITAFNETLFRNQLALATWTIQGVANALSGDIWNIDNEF
Assay [6] addresses T2, human transferrin receptor fused to …. In words: cell-based or functional assay.
Assay [7] has the same target. The experiment in a line: flow cytometry, CHO-hTfR-EGFP cells.
The target of assay [8] is T1, mouse transferrin receptor fused to …. The experiment in a line: flow cytometry, CHO-mTfR-EGFP cells.
Assay [9] deals with T4, mouse TfR ectodomain fused to a mouse IgG1 Fc fragment (mouse, UniProt Q62351 89-763).
T4 construct: extracellular domain; produced in-house; not shown: mouse IgG1 Fc fragment
T4 sequence (Q62351 89-763): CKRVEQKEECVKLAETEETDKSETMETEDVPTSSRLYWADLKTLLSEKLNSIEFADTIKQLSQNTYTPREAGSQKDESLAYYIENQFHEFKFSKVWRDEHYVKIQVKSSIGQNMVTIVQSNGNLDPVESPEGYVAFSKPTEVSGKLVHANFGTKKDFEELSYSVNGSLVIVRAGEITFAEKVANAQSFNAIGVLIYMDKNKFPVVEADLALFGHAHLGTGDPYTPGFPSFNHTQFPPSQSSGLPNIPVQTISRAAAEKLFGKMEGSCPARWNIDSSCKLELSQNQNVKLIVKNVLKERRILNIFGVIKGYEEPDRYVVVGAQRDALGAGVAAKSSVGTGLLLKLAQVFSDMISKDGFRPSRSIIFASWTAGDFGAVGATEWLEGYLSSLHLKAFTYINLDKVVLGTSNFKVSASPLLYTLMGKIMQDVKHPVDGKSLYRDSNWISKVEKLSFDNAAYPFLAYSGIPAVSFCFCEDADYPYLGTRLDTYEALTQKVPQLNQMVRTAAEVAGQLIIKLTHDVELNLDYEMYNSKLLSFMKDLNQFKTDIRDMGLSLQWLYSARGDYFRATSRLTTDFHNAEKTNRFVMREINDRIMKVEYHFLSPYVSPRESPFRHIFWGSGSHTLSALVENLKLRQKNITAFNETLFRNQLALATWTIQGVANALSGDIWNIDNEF
In words: SPR (Biacore T200). Background: In SPR one partner is held on a chip, and binding of the other changes the refractive index at the surface.

T1 sequence (Q62351 whole entry, the tested form may be a part): as the sequence (Q62351 whole entry, the tested form may be a part) above

B1: 13C3-LC-VHH A (bispecific antibody)
heavy: QVQLQQSGPELVRPGVSVKISCKGSGYTFTDYAMHWVKQSHAKSLEWIGVISTKYGKTNYNQKFKGKATMTVDKSSSTAYMELARLTSEDSAIYYCARGDDGYSWGQGTSVTVSSAKTTPPSVYPLAPGSAAQTNSMVTLGCLVKGYFPEPVTVTWNSGSLSSGVHTFPAVLQSDLYTLSSSVTVPSSTWPSETVTCNVAHPASSTKVDKKIVPRDCGCKPCICTVPEVSSVFIFPPKPKDVLTITLTPKVTCVVVDISKDDPEVQFSWFVDDVEVHTAQTQPREEQFNSTFRSVSELPIMHQDWLNGKEFKCRVNSAAFPAPIEKTISKTKGRPKAPQVYTIPPPKEQMAKDKVSLTCMITDFFPEDITVEWQWNGQPAENYKNTQPIMDTDGSYFVYSKLNVQKSNWEAGNTFTCSVLHEGLHNHHTEKSLSHSPG
light: DVVMTQTPLSLPVSLGDQASISCRSGQSLVHSNGNTYLHWYLQKPGQSPKLLIYTVSNRFSGVPDRFSGSGSGSDFTLKISRVEAEDLGVYFCSQNTFVPWTFGGGTKLEIKRADAAPTVSIFPPSSEQLTSGGASVVCFLNNFYPKDINVKWKIDGSERQNGVLNSWTDQDSKDSTYSMSSTLTLTKDEYERHNSYTCEATHKTSTSPIVKSFNRNECSGSGGGGGMAEVQLVESGGGVVQPGGSLKLSCVASGTDFSINFIRWYRQAPGKQREFVAGFTATGNTNYADSMKGRFTISRDNTKNAVYLQIDSLKPEDTAVYYCYMLDKWGQGTQVTVSSAAA
B1: the Kd in assay [1] worked out at 106 nM.

B2: E9 (VHH)
VHH: EVQLVESGGGLVQPGGSLRLSCVSSATFGGYSMGWFRQAPGKEREFVAAITWNGGIIKDYADGVMGRFTISRNSALNTVYLQMDSLKSTDTGVYVCAGDRTYYAGGYVPTSEREYAFWGQGTQVTVSS
As to B2, the Kd in [2] was 1290 nM; in assay [3] it was 1310 nM; in assay [4], 1540 nM.

B3: C5-siSOD1m-5'VP (other)
VHH: EVQLVESGGGVVQPGGSLKLSCVASGTDFSINFIRWYRQAPGKQREFVAGFTATGNTNYADSMKGRFTISRDNTKNAVYLQIDSLKPEDTAVYYCYMLDKWGQGTQVTVSSAAAEQKLISEEDLNGAAHHHHHHGS
modifications: siSOD1m-5'VP siRNA (SEQ ID NOs 465/466) linked by a stable linker to the tag
Regarding B3, in assay [5], the “mean IC50 of mSOD1 mRNA downregulation, free uptake on Neuro-2a cells” value was 7.4 nM.

B4: VHH A-siGFPst1 bioconjugate (other)
VHH: B3 VHH
modifications: siGFPst1 siRNA (3' end of sense strand, DBCO) clicked to 3-azido-1-propanamine on the Gln of the C-terminal Q-tag
For B4, in [6], the “IC50 of the reduction of GFP protein levels, 6-hour pulse and chase to 120 hrs” value was 1.24 nM; the “IC50 of the reduction of GFP protein levels, free uptake 120 hrs” value was found to be 2.73 nM.

B5: VHH A6 (C5^V6) (VHH)
VHH: EVQLVESGGGVVQPGGSLKLSCVASGTDFSINFIRWYRQAPGKQREFVAGFTATGNTNYADSMKGRFTISRDNTKNAVYLQIDSLKPEDTAVYYCYALDKWGQGTQVTVSS
With B5, the binding result in assay [7] and in assay [8] was “binds” each time.

B6: VHH A17 (C5^V17) (VHH)
VHH: B5 VHH with A97M, L98I
With B6, the binding result in [7] and in assay [8] was “binds” each time.

B7: VHH D (H3) (VHH)
VHH: EVQLVESGGGEVQPGGSLKLSCVASGTDFSINFVRWYRQRPGKQREWVAGFTANGDTNYPDSMKGRFTISRDNAKNTVYLQINSLKSEDTAVYYCYMLDNWGQGTQVTVSS
In the case of B7, the kon in assay [9] was determined as 5.81e+06 M⁻¹ s⁻¹.

B8: VHH A19 (C5^V19) (VHH)
VHH: B5 VHH with A97M, D99E
Turning to B8, the binding result in assay [8] is given as “binds”.

B9: B8^V9 (VHH)
VHH: EVQLVESGGGVVQPGGSLRLSCAASGEIFSINFMRWYRQAPGKQREWVAGFTRDGSKNYPDSAKGRFTISRDNAKNTVYLQIDSLKPEDTAVYYCYMLDTWGQGTQVTVSS
As for B9, the Kd in assay [4] worked out at 24 nM.
